Measured values as given in patent publication US20050059089A1 (priority 2003, published 2005).
Several values for one entry are separate records, joined by “and”; a condition that tells them apart may be missing. Identical values can stand only once. No end group written: not given here.

B1: human recombinant INSL5 (ligand)
chain 1: KESVRLCGLEYIRTVIYICASSRW
chain 2: QDLQTLCCTDGCSMTDLSALC
modifications: ends and bridges not checked; cysteine pairing not given here
notes: Recombinant peptide from COS-7 cells co-transfected with furin; also called unlabeled INSL5; human INSL5
B2: human relaxin3 (ligand)
chain 1: RAAPYGVRLCGREFIRAVIFTCGGSRW
chain 2: DVLAGLSSSCCKWGCSKSEISSLC
modifications: disulfide (positions not given here); also: A- and B-chains linked by disulfide bridges, places not given here
notes: also called unlabeled relaxin3; human recombinant relaxin3

Assays:
human GPCR135 = target: T1, human GPCR135 (human, UniProt Q9NSD7 1-469); experiment: competition binding with 100 pM ^125I-relaxin3, membranes of COS-7 cells expressing human GPCR135
T1 construct: Expressed in COS-7, CHO, SK-N-MC or HEK293 cells
T1 sequence: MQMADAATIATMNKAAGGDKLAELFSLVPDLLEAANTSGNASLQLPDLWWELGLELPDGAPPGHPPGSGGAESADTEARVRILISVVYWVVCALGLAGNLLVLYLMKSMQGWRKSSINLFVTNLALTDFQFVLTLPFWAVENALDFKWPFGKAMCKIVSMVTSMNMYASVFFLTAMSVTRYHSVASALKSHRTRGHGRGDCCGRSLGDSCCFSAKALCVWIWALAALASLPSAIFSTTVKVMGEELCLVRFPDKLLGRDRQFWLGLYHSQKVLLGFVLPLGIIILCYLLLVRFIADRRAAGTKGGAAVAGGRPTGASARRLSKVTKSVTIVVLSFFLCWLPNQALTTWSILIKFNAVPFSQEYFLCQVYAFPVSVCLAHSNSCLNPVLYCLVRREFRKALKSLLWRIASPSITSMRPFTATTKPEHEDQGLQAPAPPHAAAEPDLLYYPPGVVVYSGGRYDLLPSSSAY
Method: The binding assays were performed at room temperature for an incubation time of one hour. The binding mixtures were then filtered through GFC filters pre-saturated with 0.3 polyethylenimine (Sigma) and washed with cold binding buffer. […] The results were analyzed by Prism 3.0 software.

human GPCR142 [1] = target: T2, human GPCR142 (human, UniProt Q8TDU9 1-374); experiment: competition binding with ^125I-relaxin3, membranes of COS-7 cells transiently expressing GPCR142
T2 construct: Expressed in COS-7, CHO, SK-N-MC or HEK293 cells
Method: (§1) The binding mixtures were incubated at room temperature for 1 h and then were filtered through 96-well GFC plates (Packard) and washed with ice-cold washing buffer: 50 mM Tris-HCl, pH 7.4. Fifty microliters of Microscint-40 were added to each well and the plates were counted in a Topcounter NTX (Packard).

human GPCR142 [2] = target: T2, human GPCR142; experiment: radioligand binding assays
human GPCR142 [3] = target: T2, human GPCR142; experiment: cell-based or functional assay
bovine GPCR142 [4] = target: T3, bovine GPCR142 (bovine); experiment: cell-based or functional assay
T3 chain: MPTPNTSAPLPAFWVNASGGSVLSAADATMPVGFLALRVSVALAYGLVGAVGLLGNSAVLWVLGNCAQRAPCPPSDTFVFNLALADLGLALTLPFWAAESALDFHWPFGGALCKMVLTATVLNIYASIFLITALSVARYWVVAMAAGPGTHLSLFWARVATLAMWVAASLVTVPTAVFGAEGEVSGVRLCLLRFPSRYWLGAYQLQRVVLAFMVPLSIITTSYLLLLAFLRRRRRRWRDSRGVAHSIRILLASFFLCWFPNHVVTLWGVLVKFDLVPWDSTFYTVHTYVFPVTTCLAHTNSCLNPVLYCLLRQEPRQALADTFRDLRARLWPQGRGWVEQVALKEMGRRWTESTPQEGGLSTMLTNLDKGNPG

mouse GPCR142 [5] = target: T4, mouse GPCR142 (mouse, UniProt Q7TQP4 1-414); experiment: cell-based or functional assay
T4 sequence: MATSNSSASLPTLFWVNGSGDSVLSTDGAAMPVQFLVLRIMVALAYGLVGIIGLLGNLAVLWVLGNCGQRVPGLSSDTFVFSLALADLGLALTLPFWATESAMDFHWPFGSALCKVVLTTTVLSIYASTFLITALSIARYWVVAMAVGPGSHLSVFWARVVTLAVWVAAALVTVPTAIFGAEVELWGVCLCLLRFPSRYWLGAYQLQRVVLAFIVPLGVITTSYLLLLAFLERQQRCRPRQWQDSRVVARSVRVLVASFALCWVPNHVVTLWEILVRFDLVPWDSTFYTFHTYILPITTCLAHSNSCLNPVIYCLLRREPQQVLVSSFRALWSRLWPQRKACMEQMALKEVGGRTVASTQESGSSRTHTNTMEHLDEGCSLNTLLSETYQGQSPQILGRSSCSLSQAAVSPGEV

porcine GPCR142 [6] = target: T5, porcine GPCR142 (porcine); experiment: cell-based or functional assay
T5 chain: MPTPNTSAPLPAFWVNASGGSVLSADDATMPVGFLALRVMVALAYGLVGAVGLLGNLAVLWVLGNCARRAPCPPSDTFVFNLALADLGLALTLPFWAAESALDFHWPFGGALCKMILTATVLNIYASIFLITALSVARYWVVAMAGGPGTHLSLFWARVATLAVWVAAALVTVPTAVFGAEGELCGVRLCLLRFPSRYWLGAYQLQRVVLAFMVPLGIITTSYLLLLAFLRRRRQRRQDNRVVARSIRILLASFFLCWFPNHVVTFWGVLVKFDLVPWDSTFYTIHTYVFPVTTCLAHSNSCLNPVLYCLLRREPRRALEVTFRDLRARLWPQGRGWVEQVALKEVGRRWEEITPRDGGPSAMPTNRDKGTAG

monkey GPCR142 [7] = target: T6, monkey GPCR142 (monkey (Macaca Nemestrina), UniProt Q8TDU9 1-374 (human entry)); experiment: cell-based or functional assay
T6 chain: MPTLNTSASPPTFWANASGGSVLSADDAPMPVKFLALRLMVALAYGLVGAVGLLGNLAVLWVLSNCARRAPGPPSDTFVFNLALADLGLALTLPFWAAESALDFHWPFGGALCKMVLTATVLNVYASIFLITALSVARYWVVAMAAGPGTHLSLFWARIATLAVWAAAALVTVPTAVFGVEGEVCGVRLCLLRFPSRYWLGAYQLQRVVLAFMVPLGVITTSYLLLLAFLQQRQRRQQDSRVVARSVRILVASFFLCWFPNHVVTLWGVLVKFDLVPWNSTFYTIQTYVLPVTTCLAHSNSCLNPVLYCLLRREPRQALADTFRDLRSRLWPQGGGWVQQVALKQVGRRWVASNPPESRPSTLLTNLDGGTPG

[8] = target: Monkey, bovine, and porcine GPCR142; experiment: cell-based or functional assay
human GPCR142 [9] = target: T2, human GPCR142; experiment: radioligand competition binding, recombinant receptor in transfected COS-7 cells
Method: (§2) Competition binding experiments were performed to compare the ligand binding properties for recombinant monkey, mouse, bovine, and porcine GPCR142 versus that of the human GPCR142. […] The GPCR142 receptors from different species were also compared in GTPγS binding and Ca²⁺ mobilization assays.
as §1

bovine GPCR142 [10] = target: T3, bovine GPCR142; experiment: as above
Method: as §2, §1

mouse GPCR142 [11] = target: T4, mouse GPCR142; experiment: as above
Method: as §2, §1

porcine GPCR142 [12] = target: T5, porcine GPCR142; experiment: as above
Method: as §2, §1

monkey GPCR142 [13] = target: T6, monkey GPCR142; experiment: as above
Method: as §2, §1

T2 sequence (Q8TDU9 whole entry L329S): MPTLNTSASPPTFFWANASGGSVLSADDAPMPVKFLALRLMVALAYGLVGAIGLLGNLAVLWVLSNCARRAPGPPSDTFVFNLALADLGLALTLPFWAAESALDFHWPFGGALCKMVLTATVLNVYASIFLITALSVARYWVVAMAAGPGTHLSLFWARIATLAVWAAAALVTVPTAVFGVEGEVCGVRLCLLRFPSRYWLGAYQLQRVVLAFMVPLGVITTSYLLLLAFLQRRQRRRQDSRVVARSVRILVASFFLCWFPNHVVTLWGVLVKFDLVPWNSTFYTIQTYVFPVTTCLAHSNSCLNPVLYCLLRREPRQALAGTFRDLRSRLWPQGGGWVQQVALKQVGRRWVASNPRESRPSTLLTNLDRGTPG

Binder | binding result (human GPCR135) | Ki (human GPCR142 [1]) | Kd and Ki values (human GPCR142 [2]) | EC50, Ca^2+ mobilization with Gα16 (human GPCR142 [3]) | EC50, GTPγS binding assay (human GPCR142 [3]) | EC50, inhibition of forskolin-stimulated β-gal activity (cAMP reporter) (human GPCR142 [3]) | EC50, GTPγS binding assay (bovine GPCR142 [4]) | EC50, GTPγS binding assay (mouse GPCR142 [5]) | EC50, GTPγS binding assay (porcine GPCR142 [6]) | EC50, GTPγS binding assay (monkey GPCR142 [7]) | EC50, Ca^2+ mobilization with Gα16 [8] | IC50 (human GPCR142 [9]) | IC50 (bovine GPCR142 [10]) | IC50 (mouse GPCR142 [11]) | IC50 (porcine GPCR142 [12]) | IC50 (monkey GPCR142 [13])
B1 | no binding |  |  |  |  |  |  |  |  |  |  |  |  |  |  | 
B2 |  | 1.2 nM | 1 to 2 nM | ~50 nM | 0.93 nM and 0.98 nM | 0.85 nM | 0.45 nM | 3.5 nM | 0.96 nM | 1.1 nM | 50 to 100 nM | 1.45 nM | 0.87 nM | 5.45 nM | 1.59 nM | 1.34 nM
